The results in this text go back to patent US20250332297A1, “DLL3-SPECIFIC BINDING CONSTRUCTS AND THEIR USE IN RADIOTHERAPY” (MOLECULAR PARTNERS AG, priority 2024, published 2025).

The term Kd denotes the constant that tells how readily two partners part at equilibrium. As a reminder, the koff is the rate constant with which the complex falls apart. In general, kon refers to the second-order rate constant of association.

Test [1] addresses T1, human serum albumin (human, UniProt P02768 25-609).
T1 construct: also called HSA
The test can be described thus: SPR (ProteOn), HSA on chip, DARPin conjugate as analyte, 1:1 Langmuir fit. The procedure:
(§1) SPR multi-trace analyses were performed similarly as described in previous Examples.
(§2) All analytes (3-fold dilution ranging from 600-7.41 nM) were injected in succession for 240 s and dissociation was recorded for 600 s using a constant flow of 25 μl/min (HSA) or 100 μl/min (MSA) (25 μl/min).

Test [2] concerns the target T2, Dog DLL3-NTD (truncated dog DLL3, N-Terminal Domain, residues 27-189, C-terminal 6xHis and Avi-tag) (dog, UniProt A0A8I3MXZ5 27-188, biotinylated at the Avi-tag).
T2 construct: also called dog NTD; not shown: C-terminal 6xHis and Avi-tag
T2 sequence: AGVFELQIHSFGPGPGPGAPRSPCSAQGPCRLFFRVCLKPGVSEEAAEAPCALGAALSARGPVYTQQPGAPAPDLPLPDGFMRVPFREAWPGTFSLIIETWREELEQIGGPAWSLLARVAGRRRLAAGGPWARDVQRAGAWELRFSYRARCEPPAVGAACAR
The test can be described thus: SPR (ProteOn), biotinylated dog DLL3-NTD on chip, DARPin conjugate as analyte, 1:1 Langmuir fit. As to the method:
(§3) The data were generated using BioRad ProteOn instrument in SPR running buffer (PBS, pH 7.4 containing 0.005% Tween 20©). […] The chip was coated with biotinylated target to reach a signal intensity of 1516 RU (human ECD), 257 RU (human NTD), 1500 RU (cyno ECD) and 228 RU (dog NTD). […] Each injection was followed by a regeneration step with 16 mM H₃PO₄ for 18 s. […] The obtained SPR traces were used to determine on-rate and off-rate interaction parameters.

Test [3] concerns the target T3, Human DLL3-ECD (recombinant extracellular domain of human DLL3, Examples 11, 17 and 19) (human, UniProt Q9NYJ7 27-466, biotinylated at the Avi-tag where immobilised (Examples 11 and 19)).
T3 construct: also called hDLL3-ECD; human ECD; not shown: Avi-tag and Fc knob into hole (order depends on the format)
T3 sequence: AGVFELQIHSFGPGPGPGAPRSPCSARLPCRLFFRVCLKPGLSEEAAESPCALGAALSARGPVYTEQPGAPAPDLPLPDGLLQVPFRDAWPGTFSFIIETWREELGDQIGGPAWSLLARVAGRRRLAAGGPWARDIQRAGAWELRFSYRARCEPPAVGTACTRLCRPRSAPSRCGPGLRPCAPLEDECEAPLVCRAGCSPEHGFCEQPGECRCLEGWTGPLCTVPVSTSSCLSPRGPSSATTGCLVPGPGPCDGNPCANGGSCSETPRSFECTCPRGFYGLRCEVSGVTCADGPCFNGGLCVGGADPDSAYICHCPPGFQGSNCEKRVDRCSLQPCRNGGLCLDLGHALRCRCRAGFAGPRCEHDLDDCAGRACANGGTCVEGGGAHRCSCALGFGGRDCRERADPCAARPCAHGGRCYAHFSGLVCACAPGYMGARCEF
Briefly: SPR (ProteOn), biotinylated human DLL3-ECD on chip, DARPin conjugate as analyte, 1:1 Langmuir fit. The procedure: as §3

Test [4] addresses T4, mouse serum albumin (mouse, UniProt P07724 25-608).
T4 construct: also called MSA
The test can be described thus: SPR (ProteOn), MSA on chip, DARPin conjugate as analyte, 1:1 Langmuir fit. As to the method: as §1, §2

The target in test [5] is T5, Human DLL3-NTD (truncated human DLL3, N-Terminal Domain, residues 27-189, C-terminal 6xHis and Avi-tag) (human, UniProt Q9NYJ7 27-189).
T5 construct: also called hDLL3-NTD; human NTD; not shown: C-terminal 6xHis and Avi-tag
T5 sequence: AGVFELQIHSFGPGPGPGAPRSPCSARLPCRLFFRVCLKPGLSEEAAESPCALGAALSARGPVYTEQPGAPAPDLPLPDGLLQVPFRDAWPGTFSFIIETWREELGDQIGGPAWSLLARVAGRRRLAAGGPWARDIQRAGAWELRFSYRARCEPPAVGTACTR
The test can be described thus: SPR (ProteOn), biotinylated human DLL3-NTD on chip, DARPin conjugate as analyte, 1:1 Langmuir fit. The procedure: as §3

The target of test [6] is T6, Cyno DLL3-ECD (extracellular domain of cynomolgus macaque DLL3, residues 27 to 466, Avi-tag, 3C site, Fc knob … (cynomolgus macaque, UniProt A0A2K5WSR1 27-464, biotinylated at the Avi-tag (Example 11))).
T6 construct: range 27-466; also called cyno ECD; cynomolgus monkey DLL3; not shown: Avi-tag, 3C protease recognition site and Fc knob into hole
T6 sequence: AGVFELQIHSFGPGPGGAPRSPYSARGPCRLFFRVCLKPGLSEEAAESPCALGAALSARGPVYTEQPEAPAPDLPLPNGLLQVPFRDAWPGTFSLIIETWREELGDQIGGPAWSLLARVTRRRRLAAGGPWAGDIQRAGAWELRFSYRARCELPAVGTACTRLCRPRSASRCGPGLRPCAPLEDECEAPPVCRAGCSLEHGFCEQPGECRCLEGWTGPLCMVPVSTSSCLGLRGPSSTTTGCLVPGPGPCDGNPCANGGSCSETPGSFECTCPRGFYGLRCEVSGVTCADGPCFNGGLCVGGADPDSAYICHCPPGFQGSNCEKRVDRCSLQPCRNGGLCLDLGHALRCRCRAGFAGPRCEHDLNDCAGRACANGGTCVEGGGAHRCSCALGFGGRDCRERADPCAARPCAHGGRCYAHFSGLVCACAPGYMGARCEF
Briefly: SPR (ProteOn), biotinylated cyno DLL3-ECD on chip, DARPin conjugate as analyte, 1:1 Langmuir fit. The procedure:
as §3

In test [7] the target is T3, Human DLL3-ECD (recombinant …). The test can be described thus: SPR (ProteOn), biotinylated human DLL3-ECD on chip, DARPin conjugate as analyte, 1:1 Langmuir fit (same values as Table 14). As to the method:
as §3

For test [8], the target named is T7, Human DLL3-ECD (Homo sapiens, UniProt Q9NYJ7).
T7 construct: the extracellular domain of DLL3 (DLL3-ECD) from human, cynomolgus monkey, mouse and pig
T7 sequence (Q9NYJ7 27-492 limits assumed): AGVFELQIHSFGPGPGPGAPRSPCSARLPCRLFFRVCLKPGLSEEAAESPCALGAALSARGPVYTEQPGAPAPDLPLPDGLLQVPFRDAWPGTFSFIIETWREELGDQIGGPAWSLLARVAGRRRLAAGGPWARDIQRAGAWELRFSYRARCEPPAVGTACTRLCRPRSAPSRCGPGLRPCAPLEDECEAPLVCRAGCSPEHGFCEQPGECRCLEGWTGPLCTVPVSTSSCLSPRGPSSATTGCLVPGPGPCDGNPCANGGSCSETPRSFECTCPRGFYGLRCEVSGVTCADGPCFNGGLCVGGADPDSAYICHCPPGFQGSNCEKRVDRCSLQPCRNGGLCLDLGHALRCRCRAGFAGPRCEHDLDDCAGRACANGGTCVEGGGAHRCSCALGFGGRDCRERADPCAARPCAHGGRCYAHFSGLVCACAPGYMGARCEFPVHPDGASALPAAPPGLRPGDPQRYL
Briefly: SPR, immobilized DARPin, binding of human DLL3-ECD (Example 17). The settings on record: immobilized biotinylated DARPin, DLL3-ECD as analyte, 1:1 Langmuir, Table 19. The procedure: (§4) Kinetic binding parameters and binding affinities of two domain (2D) ankyrin repeat protein MAM279 and single domain (1 D) ankyrin repeat protein MAM093 to DLL3 from different species were determined. The DLL3-specific ankyrin repeat domain of MAM093 is identical to the DLL3-specific ankyrin repeat domain comprised in MAM279.
(§5) SPR multi-trace analyses were performed similarly as described in Examples 1 and 11. Here, the binding kinetics of immobilized DARPin proteins to the extracellular domain of DLL3 (DLL3-ECD) from human, cynomolgus monkey, mouse and pig were determined. Various concentrations of recombinant DLL3-ECD starting from 500 nM were applied to immobilized biotinylated 2D DARPin (MAM279; SEQ ID NO: 11) or 1 D DARPin (MAM093; SEQ ID NO: 1) (both with a Glycine-Serine (GS) at the N-terminal end) for on-rate and off-rate measurements.
(§6) Streptavidin SAHC200M (Xantec) SPR chip was conditioned according to the manufacturer's protocol. Biotinylated DARPins were immobilized to a coating density of 27 resonance units (RU) for 1D DARPin and 25 RU for 2D DARPin. All analytes (3-fold dilution ranging from 500-6.17 nM) were injected in succession for 240 s and dissociation was recorded for 10800 s using a constant flow of 100 μl/min.
A general note: In SPR one partner is held on a chip, and binding of the other changes the refractive index at the surface.

Test [9] has as its target Cyno DLL3-ECD. Briefly: SPR, immobilized DARPin, binding of cyno DLL3-ECD (Example 17). On the set-up: species or system cynomolgus monkey. Conditions: immobilized biotinylated DARPin, DLL3-ECD as analyte, 1:1 Langmuir, Table 19. The procedure: as §4, §5, §6
In test [10] the target is T8, mouse DLL3-ECD (Mus musculus, UniProt O88516).
T8 construct: the extracellular domain of DLL3 (DLL3-ECD) from human, cynomolgus monkey, mouse and pig
T8 sequence (O88516 33-490 limits assumed): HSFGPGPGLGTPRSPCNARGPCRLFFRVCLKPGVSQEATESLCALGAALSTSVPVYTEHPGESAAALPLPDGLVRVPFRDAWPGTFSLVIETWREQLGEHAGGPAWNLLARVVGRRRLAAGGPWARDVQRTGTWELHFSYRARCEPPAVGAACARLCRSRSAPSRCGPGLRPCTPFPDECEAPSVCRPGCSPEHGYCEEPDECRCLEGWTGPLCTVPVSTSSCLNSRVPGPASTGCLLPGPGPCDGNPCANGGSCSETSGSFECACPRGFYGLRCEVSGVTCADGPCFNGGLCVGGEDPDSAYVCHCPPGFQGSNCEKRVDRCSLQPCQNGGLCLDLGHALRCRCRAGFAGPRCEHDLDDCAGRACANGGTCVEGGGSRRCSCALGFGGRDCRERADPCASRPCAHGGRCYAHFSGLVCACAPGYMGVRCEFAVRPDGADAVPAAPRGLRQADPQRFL
Briefly: SPR, immobilized DARPin, binding of mouse DLL3-ECD (Example 17). Conditions: immobilized biotinylated DARPin, DLL3-ECD as analyte, 1:1 Langmuir, Table 20. As to the method: as §4, §5, §6

Test [11] has as its target pig DLL3-ECD. The test can be described thus: SPR, immobilized DARPin, binding of pig DLL3-ECD (Example 17). The settings on record: immobilized biotinylated DARPin, DLL3-ECD as analyte, 1:1 Langmuir, Table 20. The procedure:
as §4, §5, §6

T4 sequence (P07724 25-608 limits assumed): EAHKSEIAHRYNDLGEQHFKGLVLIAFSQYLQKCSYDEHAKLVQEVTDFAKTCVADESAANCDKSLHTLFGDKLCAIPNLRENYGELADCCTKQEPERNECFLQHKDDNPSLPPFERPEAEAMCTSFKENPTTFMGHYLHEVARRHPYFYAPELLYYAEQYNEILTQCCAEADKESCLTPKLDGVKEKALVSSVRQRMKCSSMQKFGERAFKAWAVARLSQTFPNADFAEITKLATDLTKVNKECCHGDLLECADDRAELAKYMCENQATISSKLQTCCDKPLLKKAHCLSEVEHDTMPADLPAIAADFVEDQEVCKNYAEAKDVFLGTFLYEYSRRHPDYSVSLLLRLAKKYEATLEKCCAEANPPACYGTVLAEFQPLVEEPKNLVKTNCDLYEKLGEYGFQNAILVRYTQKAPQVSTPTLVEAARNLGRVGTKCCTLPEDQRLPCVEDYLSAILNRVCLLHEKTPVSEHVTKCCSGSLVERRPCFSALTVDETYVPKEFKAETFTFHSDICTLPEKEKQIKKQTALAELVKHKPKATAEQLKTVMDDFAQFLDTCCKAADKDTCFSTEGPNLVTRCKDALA

B1: MAM279-DOTAM (GS-MAM279-tag, SEQ ID NO: 15, conjugated to the chelator DOTAM) (designed binder)
chain: GSDLGKKLLEAARAGQDDEVRELLKAGADVNAKDYFSHTPLHLAARNGHLKIVEVLLKAGADVNAKDFAGKTPLHLAADAGHLEIVEVLLKAGADVNAQDIFGKTPADIAADAGHEDIAEVLQKAAGSPTPTPTTPTPTPTTPTPTPTGSDLGKKLLAAAAQGQDDEVRELLKAGANVNAKDLFGYTPLHLAAWRGHLEIVEVLLKAGADVNAKDAAGETPLHLAAWFGHLEIVEVLLKAGADVNAQDLQGKTPADLAAKEGHEDIAEVLQKAAGSGSC
notes: also called DOTAM-conjugated MAM279; MAM279 conjugate
For the molecule B1, the Kd turned out to be 98.2 nM in [1]; 1.46 nM in test [2]; 0.243 nM in test [3]; 274 nM in [4]; 0.394 nM in test [5]; 34.6 nM in test [6]. In [7], the dissociation constant (Kd) was 0.243 nM. Besides, the koff in test [1] was 0.021 s⁻¹; in test [2], 4.86e-05 s⁻¹; in test [3], 1.64e-05 s⁻¹; in test [4], 0.0425 s⁻¹; in [5], 1.99e-05 s⁻¹; in test [6], 0.00125 s⁻¹. For the same molecule, the off-rate constant (koff) in [7] was found to be 1.64e-05 s⁻¹. Further, the on-rate constant (kon) in test [1] worked out at 213000 M⁻¹ s⁻¹; in test [2] it was 33400 M⁻¹ s⁻¹; in [3] it was 67400 M⁻¹ s⁻¹; in [4], 155000 M⁻¹ s⁻¹; in [5], 50400 M⁻¹ s⁻¹; in test [6] it was 36000 M⁻¹ s⁻¹. Also, the kon in test [7] is 67400 M⁻¹ s⁻¹.

B2: MAM093: Ankyrin repeat domain specific for DLL3 (SEQ ID NO: 1); single domain (1D) DARPin (protein)
chain: DLGKKLLAAAAQGQDDEVRELLKAGANVNAKDLFGYTPLHLAAWRGHLEIVEVLLKAGADVNAKDAAGETPLHLAAWFGHLEIVEVLLKAGADVNAQDLQGKTPADLAAKEGHEDIAEVLQKAA
modifications: Ankyrin repeat domain specific for DLL3 (MAM093)
notes: single domain (1D) DARPin
B2: in [8], the Kd turned out to be 0.13 nM, the “Koff Human DLL3-ECD” value stood at 1.18e-05 s⁻¹ and the “Kon Human DLL3-ECD” value is 90700 M⁻¹ s⁻¹. Besides, in test [9], binding was characterised by a dissociation constant (Kd) of 8.72 nM, the “Koff Cyno DLL3-ECD” value is 0.000825 s⁻¹ and the “Kon Cyno DLL3-ECD” value is 94700 M⁻¹ s⁻¹. In addition, in [10], the Kd was 149 nM, the “Koff mouse DLL3-ECD” value was found to be 0.004 s⁻¹ and the “Kon mouse DLL3-ECD” value stood at 26700 M⁻¹ s⁻¹. In test [11], binding was characterised by a dissociation constant (Kd) of 14.3 nM, the “Koff pig DLL3-ECD” value is 0.00033 s⁻¹ and the “Kon pig DLL3-ECD” value turned out to be 23100 M⁻¹ s⁻¹.
